For the test, the target named is T1, Trs31 (Saccharomyces cerevisiae, UniProt Q03337 1-283).
T1 construct: Trs31, TRAPP core subunit, S. cerevisiae; also called Trs31 subunit
T1 sequence: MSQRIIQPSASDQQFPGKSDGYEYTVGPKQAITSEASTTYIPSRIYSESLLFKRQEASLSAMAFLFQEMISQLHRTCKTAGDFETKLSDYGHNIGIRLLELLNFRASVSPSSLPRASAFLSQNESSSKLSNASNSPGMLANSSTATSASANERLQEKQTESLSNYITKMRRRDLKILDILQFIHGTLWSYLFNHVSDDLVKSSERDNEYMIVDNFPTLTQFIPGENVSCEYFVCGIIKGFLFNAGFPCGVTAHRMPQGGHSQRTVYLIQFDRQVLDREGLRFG
Nature of the test: cryo-EM structure; TRAPPIII (after anion exchange) mixed 1:3 with Ypt1-7xHis, overnight at 4°C with calf intestinal alkaline phosphatase, complex isolated by SEC in 10 mM Tris pH 7.5, 350 mM NaCl, 1 mM DTT; 3.7 Å reconstruction. Particulars: both partners purified.

B1: Rab1/Ypt1 (Ypt1-7xHis) (natural protein)
chain: not shown
notes: Rab1/Ypt1, budding yeast GTPase; Made nucleotide-free in the complex by alkaline phosphatase. pGEX-6P backbone; gift from the T. Bretscher laboratory; also called GST-Ypt1-7xHis (before cleavage); source: E. coli Rosetta2, purified (glutathione resin, eluted by PreScission cleavage of GST); not shown: GST, N-terminal, cleaved
Take B1: the binding result is on record as “binds”.

The record behind these values is article PMC8204860, “Structural basis of [sequence]‐mediated Rab1 activation” (The EMBO Journal, 2021).
